For this assay, the target named is T1, SET domain of human SETD2 (residue 1435–1711, encompassing the AWS, SET, and post-SET regions) (human, UniProt Q9BYW2 1435-1711).
T1 construct: SETD2, human, residues 1435–1711 (AWS, SET and post-SET regions), in the pET28-MHL vector; The His-tag was not removed for crystallization; A longer construct (1347–1711, 6xHis, Talon beads) was used for the histone methyltransferase assays; also called SETD2 SET domain; recombinant SET domain of SETD2; not shown: His6, N-terminal, kept
T1 sequence (looked up): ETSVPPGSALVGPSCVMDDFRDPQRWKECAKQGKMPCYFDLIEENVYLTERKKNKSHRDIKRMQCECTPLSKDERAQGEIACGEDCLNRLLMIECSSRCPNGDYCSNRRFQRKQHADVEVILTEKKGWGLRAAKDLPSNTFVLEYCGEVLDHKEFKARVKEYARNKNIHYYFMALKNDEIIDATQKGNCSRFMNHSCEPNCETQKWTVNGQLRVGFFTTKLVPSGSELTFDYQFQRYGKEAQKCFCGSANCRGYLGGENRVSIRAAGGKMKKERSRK
Nature of the assay: crystal structure; SETD2 (10 mg/ml) incubated with SAM and H3K36M peptide at a molar ratio of 1:10:10; sitting drop, 20 °C, 0.1 M KSCN, 24% PEG 2000 MME; two ternary complexes, with SAM (2.42 Å) and with SAH (2.4 Å). The note with it: both partners purified.

B1: H3K36M peptide (29-APATGGVMKPHRYRP-43) (peptide)
peptide: APATGGVMKPHRYRP
notes: histone H3 tail, residues 29–43, with K36M; also called H3K36M (29–43) peptide; source: synthetic peptide (Eurogentec for the crystals; Anaspec for the thermal shift assay)
For the molecule B1, the binding result is “binds”.

The record behind these values is publication PMC5335568, “Molecular basis for the role of oncogenic histone mutations in modulating H3K36 methylation” (Scientific Reports, 2017).
